Assay results: US20240141072A1 (published 2024)
Where a chain is given by its changes, count along the chain named.

T1: biotinylated human DLL3 protein expressed as a human IgG1 fusion protein (human, UniProt Q9NYJ7 27-492, limits assumed, biotinylated)
T1 sequence: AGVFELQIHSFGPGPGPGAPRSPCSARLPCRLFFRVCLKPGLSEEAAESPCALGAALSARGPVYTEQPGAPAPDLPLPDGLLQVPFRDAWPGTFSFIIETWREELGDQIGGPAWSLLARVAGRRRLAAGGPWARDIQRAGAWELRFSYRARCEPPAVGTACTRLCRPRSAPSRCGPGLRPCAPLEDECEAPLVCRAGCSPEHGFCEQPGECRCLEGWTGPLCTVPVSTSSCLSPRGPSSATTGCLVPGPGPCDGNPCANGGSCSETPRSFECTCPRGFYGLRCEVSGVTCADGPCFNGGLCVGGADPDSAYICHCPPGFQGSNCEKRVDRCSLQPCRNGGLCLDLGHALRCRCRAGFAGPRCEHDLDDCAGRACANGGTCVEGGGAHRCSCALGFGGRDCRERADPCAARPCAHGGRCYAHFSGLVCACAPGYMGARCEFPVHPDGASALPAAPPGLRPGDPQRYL

B1: 1D03 anti-DLL3 trispecific protein (other)
chain: EVQLVESGGGLVQPGGSLTLSCVASGSTSSINAIGWYRRAPGKQRELVAGISSDGSKVLADSVKGRFTISRDNAKNSVYLQMNSLRAEDTAVYYCYYFRIVSGSSMGYWGQGTLVTVSS
notes: not shown: linker 1808, anti-albumin sdAb, linker 1808, anti-CD3 fragment, His6 1819
B2: 1E02 anti-DLL3 trispecific protein (other)
chain: B1 chain with S27Q, I34M, K57Q, L59Y, I100T, V101K, G107R
notes: as for B1
B3: 1E08 anti-DLL3 trispecific protein (other)
chain: B1 chain with S27K, I34M, L59I, I100T, S102L, G107R
notes: as for B1
B4: 1F04 anti-DLL3 trispecific protein (other)
chain: B1 chain with S27G, I34M, L59Y, A60S, I100T, M106A, G107R
notes: as for B1
B5: 1F01 anti-DLL3 trispecific protein (other)
chain: B1 chain with I34M, L59Y, A60G, I100T, G103R, G107R
notes: as for B1
B6: 1H02 anti-DLL3 trispecific protein (other)
chain: B1 chain with T28K, I34M, V48A, L59Y, D61Q, I100T, V101S, G107R
notes: as for B1
B7: 1F010 anti-DLL3 trispecific protein (other)
chain: B1 chain with S30R, I34M, L59Y, A60K, I100T, G107R
notes: as for B1
B8: 1H01 anti-DLL3 trispecific protein (other)
chain: B1 chain with I34M, G35A, V48A, G55N, L59Y, I100T, V101R, G107R
notes: as for B1
B9: 1E011 anti-DLL3 trispecific protein (other)
chain: B1 chain with S27N, I34M, L59Y, A60Y, I100T, S102R, M106Q, G107R
notes: as for B1
B10: 1F08 anti-DLL3 trispecific protein (other)
chain: B1 chain with I34M, G35A, L59Y, A60K, I100N, G107R
notes: as for B1
B11: 1F06 anti-DLL3 trispecific protein (other)
chain: B1 chain with S27T, I34M, L59I, I100T, S102L, G107R
notes: as for B1
B12: 1D012 anti-DLL3 trispecific protein (other)
chain: B1 chain with S30H, I34M, K57R, L59Y, I100T, S104G, G107R
notes: as for B1
B13: 1H07 anti-DLL3 trispecific protein (other)
chain: B1 chain with I34F, L59Y, A60S, I100T, G107R
notes: as for B1
B14: 1G05 anti-DLL3 trispecific protein (other)
chain: B1 chain with V58Y, L59Y, I100T, S102T, G107R
notes: as for B1
B15: 1F05 anti-DLL3 trispecific protein (other)
chain: B1 chain with S29R, I34M, L59Y, R99H, I100T, G107R
notes: as for B1
B16: 1D08 anti-DLL3 trispecific protein (other)
chain: B1 chain with S27L, I34M, L59Y, I100M, G107R
notes: as for B1
B17: 1D011 anti-DLL3 trispecific protein (other)
chain: B1 chain with I34M, G35A, G55N, L59Y, I100T, S104H, G107R
notes: as for B1
B18: 1G04 anti-DLL3 trispecific protein (other)
chain: B1 chain with I31T, I34M, I100T, S102N, G103L, G107R
notes: as for B1
B19: 1F02 anti-DLL3 trispecific protein (other)
chain: B1 chain with I34M, G35A, V48A, G55Q, L59Y, V63A, I100T, G107S
notes: as for B1
B20: 1E09 anti-DLL3 trispecific protein (other)
chain: B1 chain with I34M, G35A, L59Y, A60T, I100T, V101R, G107R
notes: as for B1
B21: 1D09 anti-DLL3 trispecific protein (other)
chain: B1 chain with I34M, G35A, L59Y, A60T, I100T, V101I, G107R
notes: as for B1
B22: 1F09 anti-DLL3 trispecific protein (other)
chain: B1 chain with S27N, I34M, D54N, L59Y, I100T, S102T, G107R
notes: as for B1
B23: 1E07 anti-DLL3 trispecific protein (other)
chain: B1 chain with I34M, G35A, L59Y, A60N, I100T, S102R, M106Q, G107R
notes: as for B1
B24: 1E04 anti-DLL3 trispecific protein (other)
chain: B1 chain with S30R, A33G, I34M, V48P, V58A, L59Y, I100T, V101A, S104T, G107R
notes: as for B1
B25: 1F011 anti-DLL3 trispecific protein (other)
chain: B1 chain with L59Y, I100T, S102K, G107R
notes: as for B1
B26: 2A05 anti-DLL3 trispecific protein (other)
chain: B1 chain with S27R, I34M, L59Y, A60N, I100T, S104T, G107R
notes: as for B1
B27: 1F012 anti-DLL3 trispecific protein (other)
chain: B1 chain with S27L, I34M, L59Y, A60Q, I100T, V101N, G107R
notes: as for B1
B28: 2A01 anti-DLL3 trispecific protein (other)
chain: B1 chain with I34M, L59V, I100T, V101L, G107R
notes: as for B1
B29: 1E012 anti-DLL3 trispecific protein (other)
chain: B1 chain with I31T, I34M, L59Y, A60V, I100T, G107V
notes: as for B1
B30: 1E05 anti-DLL3 trispecific protein (other)
chain: B1 chain with S30V, I34M, G35A, V48A, L59Y, D61K, V63A, R99N, I100T, G107R
notes: as for B1
B31: 1G06 anti-DLL3 trispecific protein (other)
chain: B1 chain with L59Y, D61V, I100K, M106A, G107R
notes: as for B1
B32: 1H08 anti-DLL3 trispecific protein (other)
chain: B1 chain with S29F, I34M, I100L, G107R
notes: as for B1
B33: 1E010 anti-DLL3 trispecific protein (other)
chain: B1 chain with T28V, I34M, L59Y, A60I, I100T, S104L, G107R
notes: as for B1
B34: 1H06 anti-DLL3 trispecific protein (other)
chain: B1 chain with S27T, I34M, L59Y, A60V, I100F, V101L, G107R
notes: as for B1
B35: 1G07 anti-DLL3 trispecific protein (other)
chain: B1 chain with I34M, L59V, I100T, V101Y, G107R
notes: as for B1
B36: 1D010 anti-DLL3 trispecific protein (other)
chain: B1 chain with I31N, I34M, G35A, L59Y, A60T, I100T, V101R, G107R
notes: as for B1
B37: 2A03 anti-DLL3 trispecific protein (other)
chain: B1 chain with S27T, I34M, L59Y, A60G, I100T, S105A, G107R
notes: as for B1
B38: 1H010 anti-DLL3 trispecific protein (other)
chain: B1 chain with S29R, I34M, L59Y, A60N, I100T, G107R, Y108F
notes: as for B1
B39: 1G09 anti-DLL3 trispecific protein (other)
chain: B1 chain with I34M, L59Y, I100T, G103K, G107R
notes: as for B1
B40: 1F07 anti-DLL3 trispecific protein (other)
chain: B1 chain with I34M, L59D, I100T, G107R
notes: as for B1
B41: 1G011 anti-DLL3 trispecific protein (other)
chain: B1 chain with I34M, G35A, L59Y, R99K, I100T, G107R
notes: as for B1
B42: 1D04 anti-DLL3 trispecific protein (other)
chain: B1 chain with I31K, I34M, L59Y, I100T, S104A, G107R
notes: as for B1
B43: 1H011 anti-DLL3 trispecific protein (other)
chain: B1 chain with L59Y, A60N, I100T, V101Q, G107R
notes: as for B1
B44: 1G01 anti-DLL3 trispecific protein (other)
chain: B1 chain with I34M, G35A, L59Y, D61E, I100T, S104A, G107R
notes: as for B1
B45: 1D06 anti-DLL3 trispecific protein (other)
chain: B1 chain with I34M, G55N, L59Y, I100T, S102H, G107R
notes: as for B1

Target: T1, biotinylated human DLL3 protein …
Experiment: Octet BLI, single 50 nM
Procedure: Using the conditioned medium with known concentrations of the anti-DLL3 trispecific proteins, the binding affinities of the anti-DLL3 trispecific proteins toward human DLL3 protein were measured using a method where biotinylated version of human DLL3 protein were expressed as a human IgG1 fusion protein, and the binding affinity measurement was carried out in an Octet instrument with streptavidin tips.

Row | Kd [nM] | Binder
1 | 5.8 | B1
2 | 7 | B2
3 | 9.4 | B3
4 | 10 | B4
5 | 9.4 | B5
6 | 10 | B6
7 | 6.3 | B7
8 | 5.7 | B8
9 | 2.7 | B9
10 | 31 | B10
11 | 8.9 | B11
12 | 9.3 | B12
13 | 6.2 | B13
14 | 14 | B14
15 | 5.8 | B15
16 | 10 | B16
17 | 4.4 | B17
18 | 11 | B18
19 | 4 | B19
20 | 4.4 | B20
21 | 5.2 | B21
22 | 35 | B22
23 | 7.1 | B23

Row | Kd [nM] | Binder
24 | 8.1 | B24
25 | 5 | B25
26 | 8.9 | B26
27 | 5.8 | B27
28 | 8 | B28
29 | 5.3 | B29
30 | 14 | B30
31 | 26 | B31
32 | 17 | B32
33 | 5.7 | B33
34 | 14 | B34
35 | 8.3 | B35
36 | 5 | B36
37 | 8.2 | B37
38 | 8.4 | B38
39 | 10 | B39
40 | 13 | B40
41 | 6.8 | B41
42 | 9.7 | B42
43 | 6.2 | B43
44 | 6.6 | B44
45 | 6.8 | B45
